Test results: patent US20140179896A1 (published 2014)
Values belong to the binder of their own block, whether it stands above or below them.

Tests used:
[1] = biological target: T1, mouse vascular endothelial growth factor receptor-2 Fc chimera (Flk-1-Fc) (mouse, UniProt P35918 20-762); test: clones from the 159Q(8)L library; binding per FIG. 4
T1 construct: Purchased from R&D Systems; also called mouse VEGF-R2; not shown: Fc part of the purchased chimera
Description: (§1) To prepare ³⁵S-labeled binding proteins for analysis, mRNA was prepared as described above for RNA-protein fusion production but the linker ligation step was omitted. The mRNA was expressed using rabbit reticulocyte lysate translation kit (Ambion) in the presence of ³⁵S-labeled Met at 30° C. for 1 hour. Expressed protein was purified on M2-agarose Flag beads (Sigma) as described above. This procedure produced the encoded protein without the nucleic acid tail. In a direct binding assay, VEGF-R2-Fc fusions in concentrations ranging from 0 to 200 nM were added to a constant concentration of the purified protein (0.2 or 0.5 nM) and incubated at 30° C. for 1 hour in buffer B. The receptor-binder complexes were captured using Protein A magnetic beads for another 10 minutes at room temperature using a Kingfisher™ The beads were washed with six reaction volumes of buffer B. The protein was eluted from the beads with 100 μL of 0.1 M KOH. […] of the reaction mixture and elution were dried onto a LumaPlate-96 (Packard) and the amount of ³⁵S on the plate was measured using a TopCount NXT instrument (Packard). The amount of fibronectin-based scaffold protein bound to the target was estimated as a percent of radioactivity eluted from Protein A magnetic beads compare to radioactivity in the reaction mixture. Nonspecific binding of fibronectin-based scaffold proteins to the beads was determined by measuring binding in the absence of KDR-Fc and represented less than 1-2% of the input. Specific binding was obtained through subtraction of nonspecific binding from total binding. Data was analyzed using the GraphPad Prizm software (GraphPad Software, Inc, San Diego, Calif.), fitted using a one site, non-linear binding equation.
T1 sequence (P35918 20-762, change not shown): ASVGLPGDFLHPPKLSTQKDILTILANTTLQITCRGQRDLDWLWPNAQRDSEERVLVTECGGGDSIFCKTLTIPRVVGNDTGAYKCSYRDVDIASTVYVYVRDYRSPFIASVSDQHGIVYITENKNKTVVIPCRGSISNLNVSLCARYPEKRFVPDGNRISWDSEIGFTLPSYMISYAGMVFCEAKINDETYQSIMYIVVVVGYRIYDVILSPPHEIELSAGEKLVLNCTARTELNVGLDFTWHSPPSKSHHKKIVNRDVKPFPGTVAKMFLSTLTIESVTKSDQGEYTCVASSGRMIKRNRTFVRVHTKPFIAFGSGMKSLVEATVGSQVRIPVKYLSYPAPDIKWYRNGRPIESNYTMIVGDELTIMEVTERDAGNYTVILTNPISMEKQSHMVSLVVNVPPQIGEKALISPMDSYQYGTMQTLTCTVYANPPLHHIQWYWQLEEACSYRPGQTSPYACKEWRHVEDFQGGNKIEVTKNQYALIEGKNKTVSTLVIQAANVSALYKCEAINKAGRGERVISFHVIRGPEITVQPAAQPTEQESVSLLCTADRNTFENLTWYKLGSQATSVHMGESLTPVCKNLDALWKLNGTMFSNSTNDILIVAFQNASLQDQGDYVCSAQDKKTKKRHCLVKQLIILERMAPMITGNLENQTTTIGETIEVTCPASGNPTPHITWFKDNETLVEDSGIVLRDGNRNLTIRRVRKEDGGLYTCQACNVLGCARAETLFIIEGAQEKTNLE

[2] = biological target: T2, human vascular endothelial growth factor receptor-2 Fc chimera (KDR-Fc) (human, UniProt P35968 20-764); test: SPR (BIAcore), target immobilized
T2 construct: range 1-764; purchased from R&D Systems; also called hKDR; human VEGF-R2-Fc; not shown: human IgG1 Fc
Description: (§2) In vitro affinity measurements were made using surface plasmon resonance (SPR) (BIAcore) with both the human and mouse VEGF-receptor target proteins immobilized via amide chemistry on the BIAcore chip.
(§3) The binding kinetics of fibronectin-based scaffold proteins binding proteins to the target was measured using BIAcore 2000 biosensor (Pharmacia Biosensor). Human and mouse VEGF-R2-Fc fusions were immobilized onto a CM5 sensor chip and soluble binding proteins were injected at concentrations ranging from 0 to 100 nM in buffer 0 (10 mM HEPES, 150 mM NaCl, 0.005% Tween 20, pH 7.4). Sensorgrams were obtained at each concentration and were evaluated using a program, BIA Evaluation 2.0 (BIAcore), to determine the rate constants kₐ (kₒₙ) and kd (koff.) The affinity constant, KD was calculated from the ratio of rate constants […].
T2 sequence (P35968 20-764 limits assumed, change not shown, form in doubt): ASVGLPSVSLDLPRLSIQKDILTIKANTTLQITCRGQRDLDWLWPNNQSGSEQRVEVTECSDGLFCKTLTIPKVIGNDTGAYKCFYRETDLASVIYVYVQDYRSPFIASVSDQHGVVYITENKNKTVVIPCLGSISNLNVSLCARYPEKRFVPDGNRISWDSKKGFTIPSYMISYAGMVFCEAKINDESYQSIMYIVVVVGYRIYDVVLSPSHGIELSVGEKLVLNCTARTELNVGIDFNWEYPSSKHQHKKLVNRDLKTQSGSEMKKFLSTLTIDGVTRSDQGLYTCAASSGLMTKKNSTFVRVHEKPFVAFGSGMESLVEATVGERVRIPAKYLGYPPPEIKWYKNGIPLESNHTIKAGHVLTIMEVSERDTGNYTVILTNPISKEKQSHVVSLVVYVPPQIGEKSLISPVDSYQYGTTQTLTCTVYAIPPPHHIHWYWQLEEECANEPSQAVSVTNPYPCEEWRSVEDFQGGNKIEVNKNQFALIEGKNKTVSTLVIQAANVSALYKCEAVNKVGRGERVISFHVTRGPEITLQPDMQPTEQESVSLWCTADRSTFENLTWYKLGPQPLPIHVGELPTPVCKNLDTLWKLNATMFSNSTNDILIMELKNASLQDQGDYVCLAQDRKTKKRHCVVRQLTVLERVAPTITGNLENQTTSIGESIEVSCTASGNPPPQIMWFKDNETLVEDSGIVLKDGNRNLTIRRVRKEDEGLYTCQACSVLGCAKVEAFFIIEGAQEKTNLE

[3] = biological target: T3, mouse vascular endothelial growth factor receptor-2 Fc chimera (Flk-1-Fc) (mouse, UniProt P35918 20-762); test: SPR (BIAcore), target immobilized
T3 construct: purchased from R&D Systems; also called mouse VEGF-R2-Fc; not shown: Fc part of the purchased chimera
Description: as §2, §3
T3 sequence (P35918 20-762, change not shown): as the sequence (P35918 20-762, change not shown) above

[4] = biological target: T4, human vascular endothelial growth factor receptor-2 Fc chimera (KDR-Fc) (human, UniProt P35968 20-764); test: binding to 1 nM KDR-Fc, % of input; radioactive equilibrium binding (assay not given)
T4 construct: range 1-764; also called human VEGFR-2; hKDR; not shown: human IgG1 Fc
Description: as §1
T4 sequence (P35968 20-764 limits assumed, change not shown, form in doubt): as the sequence (P35968 20-764 limits assumed, change not shown, form in doubt) above

[5] = biological target: full-length human KDR on cells (human, UniProt P35968 20-1356); test: cell-based or functional assay
[6] = biological target: T4, human vascular endothelial growth …; test: radioactive equilibrium binding (assay not given)
Description: as §1

[7] = biological target: T1, mouse vascular endothelial growth …; test: radioactive equilibrium binding (assay not given)
Description: as §1

[8] = biological target: T1, mouse vascular endothelial growth …; test: binding to 1 nM Flk-1-Fc, % of input; radioactive equilibrium binding (assay not given)
Description: as §1

[9] = biological target: T2, human vascular endothelial growth …; test: radioactive equilibrium binding assay, KDR-Fc
Description: as §1

Chain of full-length human KDR on cells (P35968 20-1356): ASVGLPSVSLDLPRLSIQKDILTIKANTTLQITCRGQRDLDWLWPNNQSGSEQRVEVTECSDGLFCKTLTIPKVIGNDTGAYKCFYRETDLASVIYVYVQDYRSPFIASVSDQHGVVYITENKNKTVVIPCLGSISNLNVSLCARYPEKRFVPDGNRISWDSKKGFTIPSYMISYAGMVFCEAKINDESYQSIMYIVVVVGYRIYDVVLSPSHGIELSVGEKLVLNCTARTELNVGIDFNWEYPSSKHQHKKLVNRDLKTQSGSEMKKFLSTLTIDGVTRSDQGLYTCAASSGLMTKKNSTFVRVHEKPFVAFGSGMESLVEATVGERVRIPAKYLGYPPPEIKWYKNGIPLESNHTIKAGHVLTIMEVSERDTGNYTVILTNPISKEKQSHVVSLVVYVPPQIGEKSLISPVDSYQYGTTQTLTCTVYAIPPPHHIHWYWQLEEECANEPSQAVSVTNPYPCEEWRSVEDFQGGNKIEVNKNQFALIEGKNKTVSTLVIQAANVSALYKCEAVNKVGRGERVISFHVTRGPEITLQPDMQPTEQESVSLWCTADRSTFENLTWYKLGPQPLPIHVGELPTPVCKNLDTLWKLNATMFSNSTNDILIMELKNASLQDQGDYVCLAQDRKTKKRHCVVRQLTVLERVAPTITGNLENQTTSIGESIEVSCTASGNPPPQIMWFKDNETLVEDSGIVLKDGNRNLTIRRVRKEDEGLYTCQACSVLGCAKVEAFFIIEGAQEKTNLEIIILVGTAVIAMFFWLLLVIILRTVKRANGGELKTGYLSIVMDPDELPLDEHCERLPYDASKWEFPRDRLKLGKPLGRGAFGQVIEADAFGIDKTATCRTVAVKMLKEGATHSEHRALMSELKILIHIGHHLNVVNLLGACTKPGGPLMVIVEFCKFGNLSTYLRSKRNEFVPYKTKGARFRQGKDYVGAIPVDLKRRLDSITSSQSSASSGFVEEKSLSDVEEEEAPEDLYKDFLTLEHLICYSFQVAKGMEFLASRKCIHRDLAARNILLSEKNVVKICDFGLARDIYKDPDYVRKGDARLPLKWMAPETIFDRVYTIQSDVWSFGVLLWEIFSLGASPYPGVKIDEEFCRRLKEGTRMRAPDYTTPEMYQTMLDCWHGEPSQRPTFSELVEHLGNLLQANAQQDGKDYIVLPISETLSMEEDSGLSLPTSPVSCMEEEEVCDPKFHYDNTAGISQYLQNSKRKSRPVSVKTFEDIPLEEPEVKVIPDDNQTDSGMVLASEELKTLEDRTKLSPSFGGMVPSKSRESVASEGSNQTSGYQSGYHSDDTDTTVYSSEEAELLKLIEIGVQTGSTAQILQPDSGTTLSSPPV

binding result [1]: binds
B1: M3 (designed binder)
chain: VSDVPRDLEVVAATPTSLLISWRHPHFPTRYYRITYGETGGNSPVQEFTVPLQPPAATISGLKPGVDYTITGYAVTKERNGRELFTPISINYRT
notes: 10Fn3 clone with WT N-terminus; Tags not included

binding result [1]: binds
B2: M6 (designed binder)
chain: VSDVPRDLEVVAATPTSLLISWRHPHFPTHYYRITYGETGGNSPVQEFTVPLQPPAATISGLKPGVDYTITGYAVTLERDGRELFTPISINYRT
notes: as for B1

binding result [1]: binds
B3: M4 (designed binder)
chain: VSDVPRDLEVVAATPTSLLISWRHPHFPTHYYRITYGETGGNSPVQEFTVPLQPPAATISGLKPGVDYTITGYAVTTERTGRELFTPISINYRT
notes: as for B1

binding result [1]: binds
B4: M2 (designed binder)
chain: VSDVPRDLEVVAATPTSLLISWRHPHFPTRYYRITYGETGGNSPVQEFTVPLQPPAATISGLKPGVDYTITGYAVTWERNGRELFTPISINYRT
notes: as for B1

binding result [1]: binds
B5: M8 (designed binder)
chain: VSDVPRDLEVVAATPTSLLISWRHPHFPTHYYRITYGETGGNSPVQEFTVPLQPPAATISGLKPGVDYTITGYAVTKERSGRELFTPISINYRT
notes: as for B1

binding result [1]: binds
B6: M1 (designed binder)
chain: VSDVPRDLEVVAATPTSLLISWRHPHFPTRYYRITYGETGGNSPVQEFTVPLQPTVATISGLKPGVDYTITGYAVTLERNDRELFTPISINYRT
notes: as for B1

binding result [1]: binds
B7: M7 (designed binder)
chain: VSDVPRDLEVVAATPTSLLISWRHPHFPTRYYRITYGETGGNSPVQEFTVPLQPTTATISGLKPGVDYTITGYAVTWERNGRELFTPISINYRT
notes: as for B1

Kd [2]: 0.9 nM | koff [2]: 6.7e-05 s⁻¹ | kon [2]: 74000 M⁻¹ s⁻¹ | Kd [3]: 2.1 nM | koff [3]: 0.0003 s⁻¹ | kon [3]: 146000 M⁻¹ s⁻¹
B8: M5FL C100 (designed binder)
chain: MGVSDVPRDLEVVAATPTSLLISWRHPHFPTRYYRITYGETGGNSPVQEFTVPLQPPLATISGLKPGVDYTITVYAVTKERNGRELFTPISINYRTEIDKPCQHHHHHH
notes: unmodified M5FL with C-terminal extension, Cys100 and His tag; a significant percentage is produced with the initial methionine removed; also called C100-form of the M5FL protein

Kd [3]: 57.1 nM | koff [3]: 0.00054 s⁻¹ | kon [3]: 10000 M⁻¹ s⁻¹
B9: M5FL-PEG40 (designed binder)
chain: MGVSDVPRDLEVVAATPTSLLISWRHPHFPTRYYRITYGETGGNSPVQEFTVPLQPPLATISGLKPGVDYTITVYAVTKERNGRELFTPISINYRTEIDKPCQHHHHHH
modifications: branched 40 kD PEG coupled by maleimide chemistry to the cysteine residue at position 100
notes: also called M5FL 40K PEG

Kd [2]: 5.9 nM | koff [2]: 5.4e-05 s⁻¹ | kon [2]: 9000 M⁻¹ s⁻¹ | Kd [3]: 22.8 nM | koff [3]: 0.00055 s⁻¹ | kon [3]: 24000 M⁻¹ s⁻¹
B10: M5FL-PEG20 (designed binder)
chain: MGVSDVPRDLEVVAATPTSLLISWRHPHFPTRYYRITYGETGGNSPVQEFTVPLQPPLATISGLKPGVDYTITVYAVTKERNGRELFTPISINYRTEIDKPCQHHHHHH
modifications: linear 20 kD PEG coupled by maleimide chemistry to the cysteine residue at position 100
notes: also called M5FL 20K PEG

Binding to 1 nM KDR, % [4]: 27% | HUVEC proliferation assay: decrease in proliferation [5]: ~40% | Kd [6]: 1.66 nM | Kd [7]: 2.05 nM | Binding to 1 nM FLK, % [8]: 20%
B11: E26 (designed binder)
chain: EVVAATPTSLLISWRHPHFPTRYYRITYGETGGNSPVQEFTVPLQPPTATISGLKPGVDYTITGYAVTVERNGRELMTPISINYRT
notes: Del 1-8 10Fn3 clone; Tags not included

Kd [9]: < 0.6 nM
B12: K12 (designed binder)
chain: EVVAATPTSLLISWRHPHFPTRYYRITYGETGGNSPVQEFTVPLQPPTATISGLKPGVDYTITGYAVTDVYNDHEIKTPISINYRT
notes: tag left out

HUVEC proliferation assay: decrease in proliferation [5]: ~40%
B13: E18 (designed binder)
chain: EVVAATPTSLLISWRHPHFPTRYYRITYGETGGNSPVQEFTVPLQPPTATISGLKPGVDYTITGYAVTVERNGRELNTPISINYRT

Kd [9]: < 0.6 nM
B14: K10 (designed binder)
chain: EVVAATPTSLLISWRHPHFPTRYYRITYGETGGNSPVQEFTVPLQPPTATISGLKPGVDYTITGYAVTTGPNDRLLFVPISINYRT
notes: tag left out

Binding to 1 nM KDR, % [4]: 26% | Kd [6]: 0.4 nM | Kd [7]: 3.2 nM | Binding to 1 nM FLK, % [8]: 10%
B15: E5 (designed binder)
chain: EVVAATPTSLLISWRHPHFPTRYYRITYGETGGNSPVQEFTVPLQPPTATISGLKPGVDYTITGYAVTDGQNGRLLNVPISINYRT
notes: Del 1-8 10Fn3 clone; Flag tag of the radioactive-assay form not included

Kd [9]: < 0.4 nM
B16: K15 (designed binder)
chain: EVVAATPTSLLISWRHPHFPTRYYRITYGETGGNSPVQEFTVPLQPPTATISGLKPGVDYTITGYAVTEVHHDREIKTPISINYRT
notes: tag left out

Binding to 1 nM KDR, % [4]: 38% | HUVEC proliferation assay: decrease in proliferation [5]: ~40% | Kd [6]: 1.3 nM | Kd [7]: 0.66 nM | Binding to 1 nM FLK, % [8]: 40%
B17: E19 (designed binder)
chain: EVVAATPTSLLISWRHPHFPTRYYRITYGETGGNSPVQEFTVPLQPPTATISGLKPGVDYTITGYAVTVERNGRHLMTPISINYRT
notes: as for B11

Kd [9]: < 0.6 nM
B18: K13 (designed binder)
chain: EVVAATPTSLLISWRHPHFPTRYYRITYGETGGNSPVQEFTVPLQPPTATISGLKPGVDYTITGYAVTLALKGHELLTPISINYRT
notes: tag left out

Binding to 1 nM KDR, % [4]: 24% | Kd [6]: 2.37 nM | Kd [7]: 1.4 nM | Binding to 1 nM FLK, % [8]: 34%
B19: E9 (designed binder)
chain: EVVAATPTSLLISWRHPHFPTRYYRITYGETGGNSPVQEFTVPLQPPTATISGLKPGVDYTITGYAVTEERNGRTLRTPISINYRT
notes: as for B15

Binding to 1 nM KDR, % [4]: 19% | Kd [6]: 1.63 nM | Kd [7]: 2.1 nM | Binding to 1 nM FLK, % [8]: 21%
B20: E28 (designed binder)
chain: EVVAATPTSLLISWRHPHFPTRYYRITYGETGGNSPVQEFTVPLQPPTATISGLKPGVDYTITGYAVTLERNGRELMVPISINYRT
notes: as for B15

Kd [9]: < 0.6 nM
B21: K14 (designed binder)
chain: EVVAATPTSLLISWRHPHFPTRYYRITYGETGGNSPVQEFTVPLQPPTATISGLKPGVDYTITGYAVTREENDHELLIPISINYRT
notes: tag left out

Binding to 1 nM KDR, % [4]: 41% | Kd [6]: 1.58 nM | Kd [7]: 1.3 nM | Binding to 1 nM FLK, % [8]: 28%
B22: E25 (designed binder)
chain: EVVAATPTSLLISWRHPHFPTRYYRITYGETGGNSPVQEFTVPLQPPTATISGLKPGVDYTITGYAVTLERNGRELMTPISINYRT
notes: as for B15

Kd [9]: < 1.8 nM
B23: K9 (designed binder)
chain: EVVAATPTSLLISWRHPHFPTRYYRITYGETGGNSPVQEFTVPLQPPTATISGLKPGVDYTITGYAVTFGLYGKELLIPISINYRT
notes: tag left out

Binding to 1 nM KDR, % [4]: 37% | Kd [6]: 0.96 nM | Kd [7]: 5.4 nM | Binding to 1 nM FLK, % [8]: 14%
B24: E3 (designed binder)
chain: EVVAATPTSLLISWRHPHFPTRYYRITYGETGGNSPVQEFTVPLQPPTATISGLKPGVDYTITGYAVTDGRNDRKLMVPISINYRT
notes: as for B15
